# B1: domain III: domain III RNA fragment of the HCV-IRES UTR (SEQ ID NO: 26), minimal RNA element required for efficient translation inhibition (nucleic acid)
# chain: GGCCCCCCCCUCCCGGGAGAGCCAUAGUGGUCUGCGGAACCGGUGAGUACACCGGAAUUACCGGAAAGACUGGGUCCUUUCUUGGAUAAACCCACUCUAUGUCCGGUCAUUUGGGCGUGCCCCCGCAAGACUGCUAGCCGAGUAGCGUUGGGUUGCGAAAGGCCUUGUGGUACUGCCUGAUAGGGUGCUUGCGAGUGCCCCGGGAGGUCUCGUA
# modifications: Hepatitis C virus; domain III of HCV-UTR RNA
# System: general translation (reporter mRNA encoding firefly luciferase)
# Test: Inhibition of reporter mRNA translation by HCV-IRES RNA fragments in in vitro translation system (RRL, firefly luciferase)
# Format: biochemical, rabbit
# Settings: RNA fragments preincubated with in vitro translation system before Fy Luc reporter mRNA; FIG. 3
# Description: FIG. 3. […] An in vitro translation system was preincubated with the RNA fragments before addition of the reporter mRNA construct encoding firefly luciferase (Fy Luc). The inhibitory effects of each of the fragments on general translation were determined by monitoring luciferase activity upon addition of substrate. […] Domain I not analyzed due to lack of any predicted secondary structure.
# The plasmid pGEM3-HCV2b-IRES contains sequence coding for nucleotides 18 to 356 (SEQ ID NO: 1) of HCV-IRES RNA (genotype 2b) inserted at the BamHI restriction endonuclease site of the cloning vector pGEM-3 (Promega Corp., Madison, Wis.; FIG. 2A). RNA secondary structure prediction algorithms, as well as biochemical and genetic data, support a representation of this sequence as shown in FIG. 2B. […]
# Translation reactions were performed in vitro to determine the inhibitory effect of HCV IRESIII RNA and fragments thereof and contained (20 μl): 4 μl pre-treated RRL, 4 μl 5× Reaction Buffer A, 5 μl of HCV IRES RNA (1 μM in 20% B), 5 μl mRNA ([…]), and 2 μl 10% DMSO. […] Translation reaction was stopped and Luciferase activity was measured using ViewLux™ (Perkin-Elmer Scientific Instruments, Boston, Mass.; detector set at 10 sec measurement and 6× binning; FIG. 3) upon the addition of 50 μl LucLite-Plus™ luciferase assay reagent (Promega Corp., Madison, Wis.). […]
molecule,measurement,value
B1,inhibition of translation of the reporter (luciferase activity),majority of inhibitory activity resides in domain III

# — patent US20080227085A1, “Methods and Systems for the Identification of Rna Regulatory Sequences and Compounds that Modulate their Function” (priority 2003, published 2008)
